Paper PMC4829300 (RNA Biology, 2016)

Experiments:
Prp43 92–767 = Prp43 92–767 (Saccharomyces cerevisiae, UniProt P53131); conditions: ATPase assay of the truncation; details in supplement
Prp43 1–657 = Prp43 1–657 (Saccharomyces cerevisiae, UniProt P53131); conditions: ATPase assay of the truncation; details in supplement
[1] = test system: Prp43;Cmg1 (Saccharomyces cerevisiae?;Saccharomyces cerevisiae?); experiment: fluorescence anisotropy
Prp43 = experiment: fluorescence anisotropy
His-GFP-tagged Prp43 = His-GFP-tagged Prp43 (S. cerevisiae, UniProt P53131 1-767); experiment: pull-down
[2] = biological target: His10-ZZ-TEV-tagged full length Prp43 (S. cerevisiae, UniProt P53131 1-767); experiment: pull-down
His10-ZZ-TEV-tagged full length Prp43, sequence (P53131 whole entry): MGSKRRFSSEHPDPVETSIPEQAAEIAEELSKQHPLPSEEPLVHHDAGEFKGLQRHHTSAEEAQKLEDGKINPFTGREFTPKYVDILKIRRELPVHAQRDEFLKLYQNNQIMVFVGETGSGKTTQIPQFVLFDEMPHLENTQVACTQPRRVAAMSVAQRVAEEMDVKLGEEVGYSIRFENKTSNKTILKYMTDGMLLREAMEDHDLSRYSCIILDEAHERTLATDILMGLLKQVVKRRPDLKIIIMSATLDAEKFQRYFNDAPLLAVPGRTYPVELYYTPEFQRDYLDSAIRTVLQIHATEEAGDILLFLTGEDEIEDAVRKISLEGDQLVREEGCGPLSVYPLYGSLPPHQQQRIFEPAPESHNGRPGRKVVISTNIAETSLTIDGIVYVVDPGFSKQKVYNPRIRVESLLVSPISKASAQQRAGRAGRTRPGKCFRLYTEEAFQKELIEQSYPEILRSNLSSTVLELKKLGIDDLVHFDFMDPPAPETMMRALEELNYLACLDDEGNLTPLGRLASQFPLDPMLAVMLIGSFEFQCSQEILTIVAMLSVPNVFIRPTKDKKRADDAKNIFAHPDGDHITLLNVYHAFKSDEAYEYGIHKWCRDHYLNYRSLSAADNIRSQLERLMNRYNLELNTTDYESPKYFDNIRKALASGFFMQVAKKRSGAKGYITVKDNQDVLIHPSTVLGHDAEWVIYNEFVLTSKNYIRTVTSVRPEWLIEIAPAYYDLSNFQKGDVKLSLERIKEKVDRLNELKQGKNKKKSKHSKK

His-GFP-tagged Prp43, sequence (P53131 whole entry): as above
Prp43 92–767, sequence (P53131 92-767): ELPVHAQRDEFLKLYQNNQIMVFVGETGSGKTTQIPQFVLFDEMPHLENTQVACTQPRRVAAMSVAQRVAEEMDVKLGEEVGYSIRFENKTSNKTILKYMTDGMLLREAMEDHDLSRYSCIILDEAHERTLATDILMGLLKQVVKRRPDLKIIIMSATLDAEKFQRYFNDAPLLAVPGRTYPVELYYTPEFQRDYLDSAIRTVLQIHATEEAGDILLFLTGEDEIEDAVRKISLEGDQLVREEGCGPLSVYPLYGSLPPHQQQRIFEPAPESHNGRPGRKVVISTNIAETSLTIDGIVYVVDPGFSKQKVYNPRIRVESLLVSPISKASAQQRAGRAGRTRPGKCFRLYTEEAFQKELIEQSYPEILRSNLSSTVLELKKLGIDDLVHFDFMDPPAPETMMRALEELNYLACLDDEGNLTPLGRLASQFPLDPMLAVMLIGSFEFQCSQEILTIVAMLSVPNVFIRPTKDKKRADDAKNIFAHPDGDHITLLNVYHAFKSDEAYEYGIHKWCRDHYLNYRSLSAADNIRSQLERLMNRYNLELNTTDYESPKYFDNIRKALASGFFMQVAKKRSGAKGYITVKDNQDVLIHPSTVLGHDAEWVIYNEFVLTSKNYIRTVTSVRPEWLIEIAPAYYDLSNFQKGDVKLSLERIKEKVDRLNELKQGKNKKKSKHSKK
Prp43 1–657, sequence (P53131 1-657): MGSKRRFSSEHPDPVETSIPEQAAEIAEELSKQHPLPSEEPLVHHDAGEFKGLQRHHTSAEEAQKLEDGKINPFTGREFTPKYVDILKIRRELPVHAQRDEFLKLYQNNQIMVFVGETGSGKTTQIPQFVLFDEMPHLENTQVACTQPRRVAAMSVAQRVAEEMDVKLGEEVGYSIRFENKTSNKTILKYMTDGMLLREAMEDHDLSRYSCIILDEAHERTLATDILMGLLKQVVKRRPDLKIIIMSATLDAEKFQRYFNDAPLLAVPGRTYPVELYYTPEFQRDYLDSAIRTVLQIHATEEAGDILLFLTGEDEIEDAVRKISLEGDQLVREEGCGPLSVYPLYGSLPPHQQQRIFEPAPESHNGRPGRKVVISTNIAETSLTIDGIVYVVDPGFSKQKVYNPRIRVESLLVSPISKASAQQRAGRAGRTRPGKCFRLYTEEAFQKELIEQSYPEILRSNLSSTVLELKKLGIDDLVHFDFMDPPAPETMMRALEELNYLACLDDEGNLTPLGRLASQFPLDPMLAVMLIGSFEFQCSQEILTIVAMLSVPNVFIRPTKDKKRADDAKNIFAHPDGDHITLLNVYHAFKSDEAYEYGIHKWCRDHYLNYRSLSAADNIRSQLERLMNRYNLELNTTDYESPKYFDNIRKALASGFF

## Nc1ncnc2c1ncn2[C@@H]1O[C@H](COP(=O)(O)OP(=O)(O)OP(=O)(O)O)[C@@H](O)[C@H]1O [ATP]
Prp43 92–767
  NADH-coupled ATPase assay (pyruvate kinase / LDH), A340: the N- and C-terminal truncations of Prp43 themselves show ATPase activity
Prp43 1–657
  NADH-coupled ATPase assay (pyruvate kinase / LDH), A340: the N- and C-terminal truncations of Prp43 themselves show ATPase activity

## fluorescein-labeled 11 nt RNA
[1]
  Kd: 2.3 nM
Prp43
  Kd: 60 nM

B1: His10-MBP-TEV-tagged Pxr1 1–82 (domain or fragment)
chain: MGLAATRTKQRFGLDPRNTAWSNDTSRFGHQFLEKFGWKPGMGLGLSPMNSNTSHIKVSIKDDNVGLGAKLKRKDKKDEFDN
His-GFP-tagged Prp43
  binding result: binds

B2: His10-ZZ-TEV-tagged Spp382 G-patch domain (amino acids 51–110) (domain or fragment)
chain: NAPTISKLTKTYGIGAKLLSSMGYVAGKGLGKDGSGITTPIETQSRPMHNAGLGMFSNTN
His-GFP-tagged Prp43
  binding result: binds

B3: His10-MBP-TEV-tagged Cmg1 1–85 (domain or fragment)
chain: MEESKTKRKEDRIDLKNTPPQKKSKRDSTNDETARTSLRSIMPRGYKMMENMGYKEGETLGSNESALKEPIKVEINTKRRGIRAE
[2]
  binding result: binds
His-GFP-tagged Prp43
  binding result: binds

B4: His10-MBP-TEV-tagged Sqs1 705–767 (domain or fragment)
chain: VKEGEIVGQNAPEIGNENIGRRMLEKLGWKSGEGLGIQGNKGISEPIFAKIKKNRSGLRHSES
His-GFP-tagged Prp43
  binding result: binds

B5: His10-ZZ-TEV-tagged Cmg1 (natural protein)
chain: MEESKTKRKEDRIDLKNTPPQKKSKRDSTNDETARTSLRSIMPRGYKMMENMGYKEGETLGSNESALKEPIKVEINTKRRGIRAEKPDPSTMNDMQMSEQRFIKRESEMKNNKRLKKIWYRIQKVAFEMMGDSDLYNPGEDPRDFNVLWRSYVMQLNEEVAKNDLNNHSNNDNEDKNNMIPMVNESLEASPAIKGEKFGRPSTLIDCDTSIIGSRITKDTELAELEELSIEKRITKLNIFLRSEKYYCFFCGIKYKDEGDLYEHCPGVNEDDHK
His-GFP-tagged Prp43
  binding result: binds

B6: MBP-tagged full length Cmg1 (natural protein)
chain: MEESKTKRKEDRIDLKNTPPQKKSKRDSTNDETARTSLRSIMPRGYKMMENMGYKEGETLGSNESALKEPIKVEINTKRRGIRAEKPDPSTMNDMQMSEQRFIKRESEMKNNKRLKKIWYRIQKVAFEMMGDSDLYNPGEDPRDFNVLWRSYVMQLNEEVAKNDLNNHSNNDNEDKNNMIPMVNESLEASPAIKGEKFGRPSTLIDCDTSIIGSRITKDTELAELEELSIEKRITKLNIFLRSEKYYCFFCGIKYKDEGDLYEHCPGVNEDDHK
[2]
  binding result: binds
